Data taken from FireProtDB (doi:10.1016/j.jmb.2010.09.022).

B1: Profilin, Q58NA1 (parent)
chain: MSDWDPVVKEWLVDTGYCCAGGIANAEDGVVFAAAADDDDGWSKLYKDDHEEDTIGEDGNACGKVSINEASTIKAAVDDGSAPNGVWIGGQKYKVVRPEKGFEYNDCTFDITMCARSKGGAHLIKTPNGSIVIALYDEEKEQDKGNSRTSALAFAEYLHQSGY

Variants of: B1
Details: Toxoplasma gondii; pH 7.5; Thermal; CD; HEPES 10mM; KCl 100mM; reversible: yes; structure 3NEC; whole UniProt chain shown

Variant | Tm [°C] | change of melting temperature, mutant - wild type (higher = more stable) [°C]
MSDWDPVVKEWLVDTGYCCAGGIANAEDGVVFAAAADDDDGWSKLYKDDHEEDTIGEDGNACGKVSINEASTIKAAVDDGSAPNGVWIGGQKYQFVNIEKGFEYNDCTFDIATCARSKGGAHLIKTPNGSIVIALYDEEKEQDKGNSRTSALAFAEYLHQSGY [K94Q V95F R97N P98I T112A M113T] | 62.2 | 9.1
MSDWDPVVKEWLVDTGYCCAGGIANAEDGVVFAAAADQGDGWSKLYKDDHEEDTIGEDGNACGKVSINEASTIKAAVDDGSAPNGVWIGGQKYKVVRPEKGFEYNDCTFDITMCARSKGGAHLIKTPNGSIVIALYDEEKEQDKGNSRTSALAFAEYLHQSGY [D38Q D39G] | 51.3 | -1.8
